B1: DMRT5 (mouse), Myc epitope tagged, in vitro translated (natural protein, UniProt A2A9A2 1-531, looked up)
chain: MELRSELPSVPGAATAAATATGPPVASVASVAAAAAAAASLPVSVAGGLLRAPPLLLRAAEKYPRTPKCARCRNHGVVSALKGHKRYCRWKDCLCAKCTLIAERQRVMAAQVALRRQQAQEENEARELQLLYGTAEGLALAAANGIIPPRPAYEVFGSVCATDGGGPGAGAPAGSAGGAGGAEAKLQKFDLFPKTLLQAGRPDSPQPPPGKPLSPDGADSGPRTSSPEVRPGSGSENGDGESFSGSPLARASKEAGGSCPGSAGAGGGGEEDSPGSSSPLGSESGSEADKEEAEAAPTPGLGGGPGPRQRTPLDILTRVFPGHRRGVLELVLQGCGGDVVQAIEQVLNHHRGGLAAGLGPAAPLEKAAVSAAVEDAWPGRVEAAAAGGAGLPAPLQTGPTAPPHHRPLLAGAMTPGALGSLSSRSAFSPLQPNASHFGADAGAYPLGAPLGLSPLRLAYSAAAAHSRGLAFMAPYSTAGLVPTLGFRPPMDYAFSDLMRDRSAAAAAAVHKEPGYGGGLYGPMVNGTPEKQ
notes: DMRT5, mouse; source: in vitro translated (TNT Quick Coupled transcription/translation system, Promega, with 20 uM ZnSO4), not purified
B2: DMRT3 (mouse), Myc epitope tagged, in vitro translated (natural protein, UniProt Q80WT2 1-476, looked up)
chain: MNGYGSPYLYMGGPVSQPPRAPLQRTPKCARCRNHGVLSWLKGHKRYCRFKDCTCEKCILIIERQRVMAAQVALRRQQANESLESLIPDSLRALPGPPPPGDAAATAATASQSSPASQASQPPAPPRPTAELAAAAALRWVAEPQPGTLPAQLAKPDLTEERVGDSSSTDNTAEAFSDKDTDQRSSPDVVKSKNCFTPESPEIVSVDEGGYAVQKNGGNPESCPDSPKYHAEQSHLLIEGPSGTVSLPFSLKANRPPLEVLKKIFPNQKPTVLELILKGCGGDLVSAVEVLLSSRSSAAGAERTAEESLVLPSSGHIFEHTLGSYPISSSKWSVGSAFRVPDTLRFSADSSNVVPNPLAVPLQHPFPQPPRYPLMLRNTLARNQSSPFLPNDVTLWNTMTLQQQYQLRSQYVSPFPSNSTSVFRSSPVLSSRTTEDPRISIPDDGCPIVTKQSIYTEDDYDERSDSSDSRILNTSS
notes: DMRT3, mouse; also called tagged DMRT3; source: in vitro translated (TNT Quick Coupled transcription/translation system, Promega, with 20 uM ZnSO4), not purified
B3: DMRT1 (mouse), full-length, amino-terminal Myc epitope tag, in vitro translated (natural protein)
chain: not shown
notes: DMRT1, mouse, full-length protein made by in vitro transcription/translation; also called in vitro translated DMRT1; source: in vitro translated (TNT Quick Coupled transcription/translation system, Promega, with 20 uM ZnSO4), not purified
B4: DMRT1 of the heterodimerization gel shifts (complex not affected by the 9E10 anti-Myc antibody) (natural protein)
chain: not shown
notes: DMRT1, mouse; the construct used in this experiment is not described; The methods describe only a Myc-tagged DMRT1 construct; source: in vitro translated, not purified

Experiments:
[1] = molecular target: the molecule itself; test: native gel or EMSA; one in vitro translated DMRT protein (4 ul translation mix) with 32P-labelled dsDNA probe bearing the DMRT1 consensus site; monomer and dimer complexes seen on DNA; 10 mM Tris-HCl pH 7.9, 100 mM KCl, 10% glycerol, 5 mM MgCl2, 1 mM spermidine, 0.075% Triton-X-100, 1 mM DTT; on ice 10 min; 5% native gel at 4 C
[2] = molecular target: the molecule itself; test: native gel or EMSA; DMRT1 alone or together with a Myc-tagged DMRT protein (in vitro translated) on labelled DMRT1 consensus probe; composition of the DNA/protein complexes tested by supershift with DMRT1 antibody or anti-Myc 9E10; dimers seen on DNA

| Protein | stoichiometry N [1] | stoichiometry N [2] |
| --- | --- | --- |
| B1 | 2 |  |
| B2 | 2 |  |
| B3 | 2 |  |
| B4 |  | 2 |

Reference: PMC1931443, “Vertebrate DM domain proteins bind similar DNA sequences and can heterodimerize on DNA” (BMC Molecular Biology, 2007)
